Source: the nanobody polyreactivity screen of Harvey et al. (2022)

Assay: yeast display, Sf9 membrane polyspecificity reagent, FACS + sequencing; frameworks hold sequencing errors
Outline: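 Nanobodies from a synthetic yeast display library (Saccharomyces cerevisiae BJ5465), induced 36–48 hours with galactose, were stained 1 hour at 4 °C with 10% biotinylated, detergent-solubilized Sf9 membrane reagent, enriched on streptavidin microbeads, then FACS-sorted. Anti-HA (expression) and streptavidin (reagent binding) fluorescence set low and high (top ~1%) gates. Polyreactivity labels come from the gate of origin. Genes were colony-PCR amplified, MiSeq 2 × 250 sequenced and filtered by CDR length.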

| Sequence | polyreactivity (PSR sort gate) |
| --- | --- |
| QVQLVESGGGLVQAGGSLRLSCAASGSIFQRYAMGWYRQAPGKEREFVAAISGRGGSTYYADSVKGRFTISRDNAKNTVYLQMNSLKPEDTAVYYCAADSSRFYGRPRYYYWGQGTQVTVSS | high polyreactivity |
| QVQHVDSGGGLVQEGGSLRLSCAASGRIFTYNAMGWYRQAPGKERELVAAISRRGGTTYYADSVKGRFTISRDNAKNTVYLQMNSLKPEDTAVYYCAAVVYTRGVTSRPVSRYDYWGQGTQVTVSS | high polyreactivity |
| QVQLVESGGGLVQAGGSLRLSCAASGRIGKYAMGWYRQAPGKERELVATISSTGTTNYADSVKGRFTISRDNAKNTVYLKMNSLKPEDTAVYYCAARWEYVGYRRRYYRFDYWGQGTQVTVSS | high polyreactivity |
| QVQLVESGGRLVQAGGSLRLSCAASGRTFRAYVMGWYRQSPGKERELVAAISSSGGRTYYADSVKGRFTISRDNAKNTVYLQMNSLKPEDTAVYYCAAQAVRGGIGEDDYWGQGTQVTVSS | high polyreactivity |
| QVQLVESGGGLVQAGGSLRLSCAASGSTFGFNAKGWYRKAPGKERELFAAIDKSGDRHYYADSVKGRFTISRDNAKNSVYLQMNSLKTVDTAVYYCAGDIPFYRYEYWGQGTQVTVSS | high polyreactivity |
| QVQLVESAGGFVQAGGSLRLSCAASGLTFYYYAMGWYRQAPGTERELVAAFSTRGTSTYYADSVKGRFTISRDNAKKTVYLQMNSQKPEDTAVYYCAADSYPWGTGGDYWGQGTQVTVSS | high polyreactivity |
| QVQLVESGGGLVQAGGSLRLSCAASGFSFGVYAMGWSRQAPGKERELVAAISTTVGSTYYADSVKGRFTISRDNAKNTVYLQMNSLKPEDTAVYYCAAEYTGYINYYIYEYWGQGTQVTVSS | low polyreactivity |
| QVQLVESGGGLVQAGGSLRLSCAASGSIFGYYAMGWYRQAPGKERELVAAISGSGGSTYYADSVKGRFTISRDNAKYTVYLQMNRLKPEDTAVYYCAAAYHGRHYYWGQGTQVTVSS | high polyreactivity |
| QVQLVESGGGLVQAGGSLRLSCAATGLIIPFSAMGWDREPPGKDRDLVAAISWSAGSTYYADSVKGRFTISRDNAKNSVYLHMNSLKPEDTAVYYCATDRNPADFYWGQGTQVTVSS | low polyreactivity |
| QVQLVESGGGLVQAGGSLRLSCAASGSTFHYYAMGWYRQAPGKERELVAAISGSGSSTYYADSVKGRFTISRDNAKNTVYLQMNRLKPEDTAVYYCNARGHYPRARFGYKSGSDRYWGQGTQVTVSS | high polyreactivity |
| QVQLVESGVGLVQAVGSLRLSSPTSGIIFRYYSMVWYRHAPGKESEYVAVITRRGGGTYYAYSVKGRFTISRDNAKNTVYFEMNSLKPEDTAVYYCAKDFTGHYPKGFDYWGQGTQVTVSS | low polyreactivity |
| QVQLVESGGGLVQAGGSLRLSCAASGIIFVYYVMGWYRQAPGKERELVAAISWDGGSTYYADSVKGRFTISRDNAKNTVYLQMNSLKPEDTAVYYCAARYKGNPDRYGYWGLGTQVTVSS | high polyreactivity |
| QVQLVESGGGLVQAGGSLRLSCAASGRIFKKYAMGWYRQAPGKERELVATISSGGSTYYADSVKGRFTISRDNAKNTVYLQMNSLKPEDTAVYYCARREYVRRDYFVTTYDYWGQGTQVTVSS | low polyreactivity |
| QVQLVESGVGLVQAGGSLRLSCAASGFIFNYNTMGWYRQAPGKERELVAAISSSGGSTYYADSVKGRFTISRDNAKNTVYLQMNSLKPEDTAVYYCAAGANAQRVPNGDYWGQGTQVTVSS | low polyreactivity |
| QVQLGESGGGLVQAGGSLRLSCAASGRTFPYNAMGWYRQAPGKERELVAAISSGGSTNYADSVKGRFTISRDNAKNTVYLQMNSLKQEDTAVYYCAVTGWPRYTWYSYGYWGQGTQVTLSS | low polyreactivity |
| QVQLVESGGGLVQAGGSLRLSCAASGRTFQTNVMGWYRQAPGKERELVAAISKTGGRTYYADSVKGRFTISRDNAKNTVYLQMNSLKPEDTAVYYCAADSSGYEDYDYWGQGTQVTVSS | high polyreactivity |
| QVHLVESGGGLVQAGGSLRLSCAASGSTFQSNAMGWYRQAPGKERELVATITQSGATTYYADSVKGRFTISRDNAKNTVYLQMNSLNPEDTAVYYCNVDTYQKRWFWLDLDGGYWGQGTQVTVSS | low polyreactivity |
| QVQLVESGGGLVQAGVSLRLSCAASGFTFSRNAMGWYRQAPGKERELVAAISRSGGSTYYAYSVKGRFTISRDNAKNTVYLQINSLKQEDTAVYYCATSCTPNYFVTSDYWGQGTQVTVSS | high polyreactivity |
| QVQLVESGGGLVQAGGSLRLRCAASGRTFGGNAMGWYRQAPGKERELVAAISFSGGSTYYADSVKGRFTISRDNAKNTVYLQMNSLKPEDTAVYYCAARYYWSVYADQGDYWGQGTQVTVSS | low polyreactivity |
| QVQLVESGGGLVQAGGSLRLSCAASGIIFNRYAMGWYRQAPGKERELVAAITYSGDNTYYADSVKGRFTISRDNAKNTVYLQMNSLKPEDTAVYYCAAVSSRGGDYYWGQGTQVTVSS | high polyreactivity |
| QVQLVESGGGLVQAGGSLRLSCAASGRTFYRNTMGWYRQAPGKERELVAAITGSGGITYYADSVKGRFTISRDNAKNTVYLKMNSLKPEDTAVYYCAAARYLGQGTQVTVSS | high polyreactivity |

| Sequence | polyreactivity (PSR sort gate) |
| --- | --- |
| QDQLVDSGGGLVQAGGSLRLSCAASGSIFPIYAMGGYRQAPGKERELVAAIDWGDGSTSYADSVKGRFTISRDNAKNTVYLQMNSLKPEDTAVYYCAARSVFDLVYYNLIFDYWGQGTQVTVSS | high polyreactivity |
| QVQIEESGGCLVQAGGSLRLTCAASGRIISWNAMGWSRQAPGKERELVAGITWNGGRTYYADSVKGRFTISRDNVKNTVYLQMNSLKPEDTAVFSCNAERFDLTYNYWGQGTQVTVSS | high polyreactivity |
| QVQLVESGGGLVQAGGSLRLSCAASGIIFDVYAMGWYRQAPGKEREFVAAITTGGSTNYADSVKGRFTISRDNAKNSVYLQMNSLTPEDTAVYYCNADWDVGYGYWGQGTQVTVSS | low polyreactivity |
| QVQIVESGGGLVQAGGSHRLSCAASVFTFGGNVMGWYRQAPGKEREFVAAISSSGGSTYYADSVKGRFTISRDNEKNTVFLQINSLKPDDTAVYYCAKYAVVYQYRYYHWGQGTQVTVSS | high polyreactivity |
| QVQLVESGGGLVQAGGSLRLSCAASGSTFGSNAMGWYRQAPGKEREWVAAISWTGGSTYYADSVKGRFTISRDKAKNPVYVHMNSLKPEETAVYYCNDYGYGYPLYRYDYWGQGTQVTVSS | low polyreactivity |
| QVQLVESGGGLVQAGGSLRLSCAASGLIFDYNAMGWYRQAPGKERELVAAISSGGSTYYADSVKGRFTISRDNAKNTVYLQMNSLKPEDTAVYYCATRRQAQYTRYYGSRQFYYWGQGTQVTVSS | high polyreactivity |
| QFQLVESGGGLVQAGGSLRLSCAASGSTFGVYAMGWYRQAPGKERELVATINSGGSTNYADSVKGRFTISRDNAKNTVYLQMNSLKPEDTAVYYCAAGPFWQDFYVYEYDYWGQGTQVTVSS | low polyreactivity |
| QVQLVESGGGLVQAGGSLRLSCAASGRTFKGYAMGWYRQAPGKERELVAAISYRGGSTYYADSVKGRFTISRDNAKNTVYLQMNSLKPEDTAVYYCAARWNRGRYDYWGQGTQVTVSS | high polyreactivity |
| QVQLVETGGGLVQAGGSLRLSCAASGRIFYYYAMGWYRQAPGKERELVAGIDSGDSTNYADSVKGRFTISRDNAKNTVYLQMNSLKPEDTAVYYCAALHYGVYFSYYPYYYWGQGTQVTVSS | low polyreactivity |
| QVQLVESGGGLVQAGCSLRLSCAASGYMGWYRQAPGKERELVATISGSGGSTYYADSVKGRFTISRDNAKNTVYLQMNSLKPEDTAVYYCTTEIWGVNRSGYDYWGQGTQVTVSS | low polyreactivity |
| QVQLVESGGGLVQAGGSLRLSCAASGFIFDYNAMGWYRQAPGKERELVAAITSGGGSTYYADSVKGRFTISRDNAKNTVYLQMNSLKPEDTAVYYCNAVPSQHDEFDYWGQGTQVTVSS | low polyreactivity |
| QVQLVESGGGLVQAGASLRLSCDASGLTFGYYAMGWYRQAPGKERELVAAINRSGNTNYADSVKGRFTISRDNAKNTVYLQMNSLKPEDTAVYYCAKRIWSILSPYKSSYGYDYWGQGTQVTVSS | low polyreactivity |
| QVQLVESGGGLVQAGGSLRLSCAASGRTFWRYAMGWYRQAPGKERELVAAITSGGGSTYYADSVKGRFTISRDNAKNTVYLQMNSLKPEDTAVYYCNRAGRGRSFKGDYWGQGTQVTVSS | high polyreactivity |
| QVQLVESGGGLVQAGGSLRLSCAASGSTFPWNAMGWYRQAPGKERELVAAINYGNGSTYYADSVKGRFTISRDNAKNTVYLQMNSLKPEDTAVYYCNADYTGTRTDSVTPEYEYCGQGTQVTVSS | low polyreactivity |
| QVQLVESGGGLVQAGGSLRLSCAASGSIFRNYAMGWYRQAPGKERELVAAISRRGGSTYYADSVKGRFTISRDNAKNTVYLQMNSLKPEDTAVYYCKKRWSSKTVQYDYWGQGTQVTVSS | high polyreactivity |
| QVQLVESGGGLVQAGGSLRLSCAASGIIFYLYAMGWYRQAPGKERELVAPITTGGRTNYADSVKGRFTISRDNAKNTVYLQMNSLKPEDTAVYYCAATHRGQGGYYWGQGTQVTVSS | low polyreactivity |
| QVHLVESGGGFVQAGGSLRLSCAASGSICGSYAMGWYRQAPGKERELVAAISKSGGNTYYADSVKGRFTISRDNAKNTVYLQMNSVKPEDTAVYYCAAYGFYRWRGYDYSGQGTQVTVSS | high polyreactivity |
| QVQLVESGGGLVQAGGSLRLSCAASGSTFYTNAMGWYIQAPGKERELVAAISRGGITYYADSVKGRFTISRDNAKNTVYLQMNSLKPEDTAVYYCNTQIVTEYDYWGQDTQVTVSS | low polyreactivity |
| QVQLQESGGGLVQARGSLRLSCSASGNISVNGFMGWYRQAPGNVRELVASIGIGGTTYYADSVKGRFSISRDNAKNTVYLQMNSLKPEDTSVYYCAASYLYYAYSYWYQGTQVTVSS | low polyreactivity |
| QVQLVESGGGLVQAGGSLRLSCAASGSIFQHYAMGWYRQAPGKVRELVAAISSDTTSTYYADSVKGRFTISRDNAKNTVYLQMHSLKPEDTAVYYCNTYPEVYGPFQYDYWGQGTQVTVSS | low polyreactivity |
